From the supplement of paper PMC11316812
± gives the standard deviation of the averaged measurements.

Key:
MCF7 = assay: percentage of EdU-negative (G0-arrested) nuclei per well, 72 h; higher = more G0 arrest; settings: reference: sequence is the full UniProt precursor, the tested protein was the secreted form or ectodomain
hTERT-HMEC = assay: as above; settings: reference: sequence is the full UniProt precursor, the tested protein was the secreted form or ectodomain
[1] = protein concentration 0.03125 µM
[2] = protein concentration 0.3125 µM
[3] = protein concentration 0.0225 µM
[4] = protein concentration 0.01475 µM
[5] = protein concentration 0.1475 µM
[6] = protein concentration 0.00625 µM
[7] = protein concentration 0.0625 µM
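Note: secreted proteins added to cultured cells, EdU pulse at the end, nuclei found by Hoechst imaging, EdU status from nuclear versus surrounding ring intensity ratio, PBS as neutral control.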

Sequence: MTSSLQRPWRVPWLPWTILLVSTAAASQNQERLCAFKDPYQQDLGIGESRISHENGTILCSKGSTCYGLWEKSKGDINLVKQGCWSHIGDPQECHYEECVVTTTPPSIQNGTYRFCCCSTDLCNVNFTENFPPPDTTPLSPPHSFNRDETIIIALASVSVLAVLIVALCFGYRMLTGDRKQGLHSMNMMEAAASEPSLDLDNLKLLELIGRGRYGAVYKGSLDERPVAVKVFSFANRQNFINEKNIYRVPLMEHDNIARFIVGDERVTADGRMEYLLVMEYYPNGSLCKYLSLHTSDWVSSCRLAHSVTRGLAYLHTELPRGDHYKPAISHRDLNSRNVLVKNDGTCVISDFGLSMRLTGNRLVRPGEEDNAAISEVGTIRYMAPEVLEGAVNLRDCESALKQVDMYALGLIYWEIFMRCTDLFPGESVPEYQMAFQTEVGNHPTFEDMQVLVSREKQRPKFPEAWKENSLAVRSLKETIEDCWDQDAEARLTAQCAEERMAELMMIWERNKSVSPTVNPMSTAMQNERNLSHNRRVPKIGPYPDYSSSSYIEDSIHHTDSIVKNISSEHSMSSTPLTIGEKNRNSINYERQQAQARIPSPETSVTSLSTNTTTTNTTGLTPSTGMTTISEMPYPDETNLHTTNVAQSIGPTPVCLQLTEEDLETNKLDPKEVDKNLKESSDENLMEHSLKQFSGPDPLSSTSSSLLYPLIKLAVEATGQQDFTQTANGQACLIPDVLPTQIYPLPKQQNLPKRPTSLPLNTKNSTKEPRLKFGSKHKSNLKQVETGVAKMNTINAAEPHVVTVTMNGVAGRNHSVNSHAATTQYANGTVLSGQTTNIVTHRAQEMLQNQFIGEDTRLNINSSPDEHEPLLRREQQAGHDEGVLDRLVDRRERPLEGGRTNSNNNNSNPCSEQDVLAQGVPSTAADPGPSKPRRAQRPNSLDLSATNVLDGSSIQIGESTQDGKSGSGEKIKKRVKTPYSLKRWRPSTWVISTESLDCEVNNNGSNRAVHSKSSTAVYLAEGGTATTMVSKDIGMNCL
- percentage of EdU-negative (MCF7; [1]): 26.3 ± 0.7%
- percentage of EdU-negative (MCF7; [2]): 24 ± 3.6%
- percentage of EdU-negative (hTERT-HMEC; [1]): 4.72 ± 0.9%
- percentage of EdU-negative (hTERT-HMEC; [2]): 6.26 ± 1.5%

Sequence: MLPGAWLLWTSLLLLARPAQPCPMGCDCFVQEVFCSDEELATVPLDIPPYTKNIIFVETSFTTLETRAFGSNPNLTKVVFLNTQLCQFRPDAFGGLPRLEDLEVTGSSFLNLSTNIFSNLTSLGKLTLNFNMLEALPEGLFQHLAALESLHLQGNQLQALPRRLFQPLTHLKTLNLAQNLLAQLPEELFHPLTSLQTLKLSNNALSGLPQGVFGKLGSLQELFLDSNNISELPPQVFSQLFCLERLWLQRNAITHLPLSIFASLGNLTFLSLQWNMLRVLPAGLFAHTPCLVGLSLTHNQLETVAEGTFAHLSNLRSLMLSYNAITHLPAGIFRDLEELVKLYLGSNNLTALHPALFQNLSKLELLSLSKNQLTTLPEGIFDTNYNLFNLALHGNPWQCDCHLAYLFNWLQQYTDRLLNIQTYCAGPAYLKGQVVPALNEKQLVCPVTRDHLGFQVTWPDESKAGGSWDLAVQERAARSQCTYSNPEGTVVLACDQAQCRWLNVQLSPQQGSLGLQYNASQEWDLRSSCGSLRLTVSIEARAAGP
- percentage of EdU-negative (MCF7; protein concentration 0.016 µM): 25.6 ± 2.9%
- percentage of EdU-negative (MCF7; protein concentration 0.16 µM): 31.1 ± 1.1%
- percentage of EdU-negative (hTERT-HMEC; protein concentration 0.016 µM): 4.47 ± 0.7%
- percentage of EdU-negative (hTERT-HMEC; protein concentration 0.16 µM): 9.62 ± 2.1%

Sequence: MRRLLIPLALWLGAVGVGVAELTEAQRRGLQVALEEFHKHPPVQWAFQETSVESAVDTPFPAGIFVRLEFKLQQTSCRKRDWKKPECKVRPNGRKRKCLACIKLGSEDKVLGRLVHCPIETQVLREAEEHQETQCLRVQRAGEDPHSFYFPGQFAFSKALPRS
- percentage of EdU-negative (MCF7; [3]): 27.7 ± 0.92%
- percentage of EdU-negative (MCF7; protein concentration 0.225 µM): 26.6 ± 2.6%
- percentage of EdU-negative (hTERT-HMEC; [3]): 4.71 ± 0.87%
- percentage of EdU-negative (hTERT-HMEC; protein concentration 0.225 µM): 5.88 ± 0.56%

Sequence: MRLHLLLLLALCGAGTTAAELSYSLRGNWSICNGNGSLELPGAVPGCVHSALFQQGLIQDSYYRFNDLNYRWVSLDNWTYSKEFKIPFEISKWQKVNLILEGVDTVSKILFNEVTIGETDNMFNRYSFDITNVVRDVNSIELRFQSAVLYAAQQSKAHTRYQVPPDCPPLVQKGECHVNFVRKEQCSFSWDWGPSFPTQGIWKDVRIEAYNICHLNYFTFSPIYDKSAQEWNLEIESTFDVVSSKPVGGQVIVAIPKLQTQQTYSIELQPGKRIVELFVNISKNITVETWWPHGHGNQTGYNMTVLFELDGGLNIEKSAKVYFRTVELIEEPIKGSPGLSFYFKINGFPIFLKGSNWIPADSFQDRVTSELLRLLLQSVVDANMNTLRVWGGGIYEQDEFYELCDELGIMVWQDFMFACALYPTDQGFLDSVTAEVAYQIKRLKSHPSIIIWSGNNENEEALMMNWYHISFTDRPIYIKDYVTLYVKNIRELVLAGDKSRPFITSSPTNGAETVAEAWVSQNPNSNYFGDVHFYDYISDCWNWKVFPKARFASEYGYQSWPSFSTLEKVSSTEDWSFNSKFSLHRQHHEGGNKQMLYQAGLHFKLPQSTDPLRTFKDTIYLTQVMQAQCVKTETEFYRRSRSEIVDQQGHTMGALYWQLNDIWQAPSWASLEYGGKWKMLHYFAQNFFAPLLPVGFENENTFYIYGVSDLHSDYSMTLSVRVHTWSSLEPVCSRVTERFVMKGGEAVCLYEEPVSELLRRCGNCTRESCVVSFYLSADHELLSPTNYHFLSSPKEAVGLCKAQITAIISQQGDIFVFDLETSAVAPFVWLDVGSIPGRFSDNGFLMTEKTRTILFYPWEPTSKNELEQSFHVTSLTDIY
- percentage of EdU-negative (MCF7; [4]): 25.3 ± 0.54%
- percentage of EdU-negative (MCF7; [5]): 28.1 ± 0.47%
- percentage of EdU-negative (hTERT-HMEC; [4]): 5.29 ± 0.2%
- percentage of EdU-negative (hTERT-HMEC; [5]): 5.9 ± 0.22%

Sequence: MGKSESQMDITDINTPKPKKKQRWTPLEISLSVLVLLLTIIAVTMIALYATYDDGICKSSDCIKSAARLIQNMDATTEPCTDFFKYACGGWLKRNVIPETSSRYGNFDILRDELEVVLKDVLQEPKTEDIVAVQKAKALYRSCINESAIDSRGGEPLLKLLPDIYGWPVATENWEQKYGASWTAEKAIAQLNSKYGKKVLINLFVGTDDKNSVNHVIHIDQPRLGLPSRDYYECTGIYKEACTAYVDFMISVARLIRQEERLPIDENQLALEMNKVMELEKEIANATAKPEDRNDPMLLYNKMTLAQIQNNFSLEINGKPFSWLNFTNEIMSTVNISITNEEDVVVYAPEYLTKLKPILTKYSARDLQNLMSWRFIMDLVSSLSRTYKESRNAFRKALYGTTSETATWRRCANYVNGNMENAVGRLYVEAAFAGESKHVVEDLIAQIREVFIQTLDDLTWMDAETKKRAEEKALAIKERIGYPDDIVSNDNKLNNEYLELNYKEDEYFENIIQNLKFSQSKQLKKLREKVDKDEWISGAAVVNAFYSSGRNQIVFPAGILQPPFFSAQQSNSLNYGGIGMVIGHEITHGFDDNGRNFNKDGDLVDWWTQQSASNFKEQSQCMVYQYGNFSWDLAGGQHLNGINTLGENIADNGGLGQAYRAYQNYIKKNGEEKLLPGLDLNHKQLFFLNFAQVWCGTYRPEYAVNSIKTDVHSPGNFRIIGTLQNSAEFSEAFHCRKNSYMNPEKKCRVW
- percentage of EdU-negative (MCF7; [6]): 25 ± 1.8%
- percentage of EdU-negative (MCF7; [7]): 27.41 ± 0.064%
- percentage of EdU-negative (hTERT-HMEC; [6]): 4.08 ± 0.18%
- percentage of EdU-negative (hTERT-HMEC; [7]): 5.51 ± 0.24%

Sequence: MRMLLALLALSAARPSASAESHWCYEVQAESSNYPCLVPVKWGGNCQKDRQSPINIVTTKAKVDKKLGRFFFSGYDKKQTWTVQNNGHSVMMLLENKASISGGGLPAPYQAKQLHLHWSDLPYKGSEHSLDGEHFAMEMHIVHEKEKGTSRNVKEAQDPEDEIAVLAFLVEAGTQVNEGFQPLVEALSNIPKPEMSTTMAESSLLDLLPKEEKLRHYFRYLGSLTTPTCDEKVVWTVFREPIQLHREQILAFSQKLYYDKEQTVSMKDNVRPLQQLGQRTVIKSGAPGRPLPWALPALLGPMLACLLAGFLR
- percentage of EdU-negative (MCF7; [3]): 24.9 ± 1.8%
- percentage of EdU-negative (MCF7; protein concentration 0.225 µM): 25.5 ± 1.3%
- percentage of EdU-negative (hTERT-HMEC; [3]): 5.11 ± 0.088%
- percentage of EdU-negative (hTERT-HMEC; protein concentration 0.225 µM): 7.91 ± 0.34%

Sequence: MAWASRLGLLLALLLPVVGASTPGTVVRLNKAALSYVSEIGKAPLQRALQVTVPHFLDWSGEALQPTRIRILNVHVPRLHLKFIAGFGVRLLAAANFTFKVFRAPEPLELTLPVELLADTRVTQSSIRTPVVSISACSLFSGHANEFDGSNSTSHALLVLVQKHIKAVLSNKLCLSISNLVQGVNVHLGTLIGLNPVGPESQIRYSMVSVPTVTSDYISLEVNAVLFLLGKPIILPTDATPFVLPRHVGTEGSMATVGLSQQLFDSALLLLQKAGALNLDITGQLRSDDNLLNTSALGRLIPEVARQFPEPMPVVLKVRLGATPVAMLHTNNATLRLQPFVEVLATASNSAFQSLFSLDVVVNLRLQLSVSKVKLQGTTSVLGDVQLTVASSNVGFIDTDQVRTLMGTVFEKPLLDHLNALLAMGIALPGVVNLHYVAPEIFVYEGYVVISSGLFYQS [Q8N4F0]
- percentage of EdU-negative (MCF7; [3]): 25.8 ± 3.4%
- percentage of EdU-negative (MCF7; protein concentration 0.225 µM): 34.57 ± 0.04%
- percentage of EdU-negative (hTERT-HMEC; [3]): 5.06 ± 0.73%
- percentage of EdU-negative (hTERT-HMEC; protein concentration 0.225 µM): 15.4 ± 0.54%

Sequence: MARSNLPLALGLALVAFCLLALPRDARARPQERMVGELRDLSPDDPQVQKAAQAAVASYNMGSNSIYYFRDTHIIKAQSQLVAGIKYFLTMEMGSTDCRKTRVTGDHVDLTTCPLAAGAQQEKLRCDFEVLVVPWQNSSQLLKHNCVQM
- percentage of EdU-negative (MCF7; [1]): 26.7 ± 0.57%
- percentage of EdU-negative (MCF7; [2]): 25.4 ± 1.2%
- percentage of EdU-negative (hTERT-HMEC; [1]): 5.74 ± 0.7%
- percentage of EdU-negative (hTERT-HMEC; [2]): 6.46 ± 0.57%

Sequence: MICLVLTIFANLFPAACTGAHERTFLAVKPDGVQRRLVGEIVRRFERKGFKLVALKLVQASEELLREHYAELRERPFYGRLVKYMASGPVVAMVWQGLDVVRTSRALIGATNPADAPPGTIRGDFCIEVGKNLIHGSDSVESARREIALWFRADELLCWEDSAGHWLYE
- percentage of EdU-negative (MCF7; [3]): 25.5 ± 3.9%
- percentage of EdU-negative (MCF7; protein concentration 0.225 µM): 22.9 ± 1.8%
- percentage of EdU-negative (hTERT-HMEC; [3]): 4.25 ± 0.15%
- percentage of EdU-negative (hTERT-HMEC; protein concentration 0.225 µM): 5.77 ± 0.68%
